Laboratory results taken from US20240209076A1 (KODIAK SCIENCES, published 2024).

Target: recombinant human IL-6 (human, UniProt P05231 30-212)
Test: SPR, IL-6 on CM5 chip, Fab lysate, 25 C
Experimental: Three ranges of antigen density (100-150 RU, 300-400 RU, 400-600 RU) were obtained by using variable flow times for each chip channel, later blocked with ethanolamine. Supernatants of the 96-well filtered culture lysates were injected at 50 μL/min for 120 seconds. Fitting of dissociation curves (300 seconds) to single exponential decay curve was used for the determination of dissociation rates (koff). Chip surfaces were regenerated with 10 mM Glycine pH 1.7 solution injected at 50 μL/min during 60 seconds after every cycle of sample binding and dissociation.

recombinant human IL-6, sequence (P05231 30-212 limits assumed): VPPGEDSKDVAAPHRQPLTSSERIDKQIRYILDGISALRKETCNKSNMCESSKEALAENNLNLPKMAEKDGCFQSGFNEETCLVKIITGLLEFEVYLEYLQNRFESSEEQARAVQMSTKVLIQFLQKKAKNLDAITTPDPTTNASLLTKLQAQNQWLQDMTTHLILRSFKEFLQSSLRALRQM

Binder | koff
anti-IL-6 Fab, heavy chain S35Q (Fab, V domains shown, see m39) VH: EVQLVESGGGLVQPGGSLRLSCAASGFTFSPFAMQWVRQAPGKGLEWVAKISPGGSWTYYSDTVTGRFTFSLDTSKSTAYLQMNSLRAEDTAVYYCARQLWGYYALDIWGQGTLVTVSS VL: DIQLTQSPSSLSASVGDRVTITCSASISVSYMYWYQQKPGKAPKLLIYDMSNLASGVPSRFSGSGSGTDFTLTISSLQPEDFATYYCMQWSGYPYTFGQGTKVEIK | 0.00354 s⁻¹
anti-IL-6 Fab, heavy chain S56R (Fab, V domains shown, see m39) VH: EVQLVESGGGLVQPGGSLRLSCAASGFTFSPFAMSWVRQAPGKGLEWVAKISPGGRWTYYSDTVTGRFTFSLDTSKSTAYLQMNSLRAEDTAVYYCARQLWGYYALDIWGQGTLVTVSS VL: DIQLTQSPSSLSASVGDRVTITCSASISVSYMYWYQQKPGKAPKLLIYDMSNLASGVPSRFSGSGSGTDFTLTISSLQPEDFATYYCMQWSGYPYTFGQGTKVEIK | 0.00509 s⁻¹
anti-IL-6 Fab, heavy chain S61A (Fab, V domains shown, see m39) VH: EVQLVESGGGLVQPGGSLRLSCAASGFTFSPFAMSWVRQAPGKGLEWVAKISPGGSWTYYADTVTGRFTFSLDTSKSTAYLQMNSLRAEDTAVYYCARQLWGYYALDIWGQGTLVTVSS VL: DIQLTQSPSSLSASVGDRVTITCSASISVSYMYWYQQKPGKAPKLLIYDMSNLASGVPSRFSGSGSGTDFTLTISSLQPEDFATYYCMQWSGYPYTFGQGTKVEIK | 0.00604 s⁻¹
anti-IL-6 Fab, heavy chain T58R (Fab, V domains shown, see m39) VH: EVQLVESGGGLVQPGGSLRLSCAASGFTFSPFAMSWVRQAPGKGLEWVAKISPGGSWRYYSDTVTGRFTFSLDTSKSTAYLQMNSLRAEDTAVYYCARQLWGYYALDIWGQGTLVTVSS VL: DIQLTQSPSSLSASVGDRVTITCSASISVSYMYWYQQKPGKAPKLLIYDMSNLASGVPSRFSGSGSGTDFTLTISSLQPEDFATYYCMQWSGYPYTFGQGTKVEIK | 0.00425 s⁻¹
anti-IL-6 Fab, heavy chain T63E (Fab, V domains shown, see m39) VH: EVQLVESGGGLVQPGGSLRLSCAASGFTFSPFAMSWVRQAPGKGLEWVAKISPGGSWTYYSDEVTGRFTFSLDTSKSTAYLQMNSLRAEDTAVYYCARQLWGYYALDIWGQGTLVTVSS VL: DIQLTQSPSSLSASVGDRVTITCSASISVSYMYWYQQKPGKAPKLLIYDMSNLASGVPSRFSGSGSGTDFTLTISSLQPEDFATYYCMQWSGYPYTFGQGTKVEIK | 5.53e-05 s⁻¹
anti-IL-6 Fab, heavy chain T63Q (Fab, V domains shown, see m39) VH: EVQLVESGGGLVQPGGSLRLSCAASGFTFSPFAMSWVRQAPGKGLEWVAKISPGGSWTYYSDQVTGRFTFSLDTSKSTAYLQMNSLRAEDTAVYYCARQLWGYYALDIWGQGTLVTVSS VL: DIQLTQSPSSLSASVGDRVTITCSASISVSYMYWYQQKPGKAPKLLIYDMSNLASGVPSRFSGSGSGTDFTLTISSLQPEDFATYYCMQWSGYPYTFGQGTKVEIK | 0.0057 s⁻¹
anti-IL-6 Fab, heavy chain T63G (Fab, V domains shown, see m39) VH: EVQLVESGGGLVQPGGSLRLSCAASGFTFSPFAMSWVRQAPGKGLEWVAKISPGGSWTYYSDGVTGRFTFSLDTSKSTAYLQMNSLRAEDTAVYYCARQLWGYYALDIWGQGTLVTVSS VL: DIQLTQSPSSLSASVGDRVTITCSASISVSYMYWYQQKPGKAPKLLIYDMSNLASGVPSRFSGSGSGTDFTLTISSLQPEDFATYYCMQWSGYPYTFGQGTKVEIK | 0.0539 s⁻¹
anti-IL-6 Fab, heavy chain T28Y (Fab, V domains shown, see m39) VH: EVQLVESGGGLVQPGGSLRLSCAASGFYFSPFAMSWVRQAPGKGLEWVAKISPGGSWTYYSDTVTGRFTFSLDTSKSTAYLQMNSLRAEDTAVYYCARQLWGYYALDIWGQGTLVTVSS VL: DIQLTQSPSSLSASVGDRVTITCSASISVSYMYWYQQKPGKAPKLLIYDMSNLASGVPSRFSGSGSGTDFTLTISSLQPEDFATYYCMQWSGYPYTFGQGTKVEIK | 0.0039 s⁻¹
anti-IL-6 Fab, heavy chain S61R (Fab, V domains shown, see m39) VH: EVQLVESGGGLVQPGGSLRLSCAASGFTFSPFAMSWVRQAPGKGLEWVAKISPGGSWTYYRDTVTGRFTFSLDTSKSTAYLQMNSLRAEDTAVYYCARQLWGYYALDIWGQGTLVTVSS VL: DIQLTQSPSSLSASVGDRVTITCSASISVSYMYWYQQKPGKAPKLLIYDMSNLASGVPSRFSGSGSGTDFTLTISSLQPEDFATYYCMQWSGYPYTFGQGTKVEIK | 0.00585 s⁻¹
anti-IL-6 Fab, heavy chain T58V (Fab, V domains shown, see m39) VH: EVQLVESGGGLVQPGGSLRLSCAASGFTFSPFAMSWVRQAPGKGLEWVAKISPGGSWVYYSDTVTGRFTFSLDTSKSTAYLQMNSLRAEDTAVYYCARQLWGYYALDIWGQGTLVTVSS VL: DIQLTQSPSSLSASVGDRVTITCSASISVSYMYWYQQKPGKAPKLLIYDMSNLASGVPSRFSGSGSGTDFTLTISSLQPEDFATYYCMQWSGYPYTFGQGTKVEIK | 0.0562 s⁻¹
anti-IL-6 Fab, heavy chain T63K (Fab, V domains shown, see m39) VH: EVQLVESGGGLVQPGGSLRLSCAASGFTFSPFAMSWVRQAPGKGLEWVAKISPGGSWTYYSDKVTGRFTFSLDTSKSTAYLQMNSLRAEDTAVYYCARQLWGYYALDIWGQGTLVTVSS VL: DIQLTQSPSSLSASVGDRVTITCSASISVSYMYWYQQKPGKAPKLLIYDMSNLASGVPSRFSGSGSGTDFTLTISSLQPEDFATYYCMQWSGYPYTFGQGTKVEIK | 0.00611 s⁻¹
anti-IL-6 Fab, heavy chain T65D (Fab, V domains shown, see m39) VH: EVQLVESGGGLVQPGGSLRLSCAASGFTFSPFAMSWVRQAPGKGLEWVAKISPGGSWTYYSDTVDGRFTFSLDTSKSTAYLQMNSLRAEDTAVYYCARQLWGYYALDIWGQGTLVTVSS VL: DIQLTQSPSSLSASVGDRVTITCSASISVSYMYWYQQKPGKAPKLLIYDMSNLASGVPSRFSGSGSGTDFTLTISSLQPEDFATYYCMQWSGYPYTFGQGTKVEIK | 0.00614 s⁻¹
anti-IL-6 Fab, heavy chain T58K (Fab, V domains shown, see m39) VH: EVQLVESGGGLVQPGGSLRLSCAASGFTFSPFAMSWVRQAPGKGLEWVAKISPGGSWKYYSDTVTGRFTFSLDTSKSTAYLQMNSLRAEDTAVYYCARQLWGYYALDIWGQGTLVTVSS VL: DIQLTQSPSSLSASVGDRVTITCSASISVSYMYWYQQKPGKAPKLLIYDMSNLASGVPSRFSGSGSGTDFTLTISSLQPEDFATYYCMQWSGYPYTFGQGTKVEIK | 0.00492 s⁻¹
anti-IL-6 Fab, heavy chain S61K (Fab, V domains shown, see m39) VH: EVQLVESGGGLVQPGGSLRLSCAASGFTFSPFAMSWVRQAPGKGLEWVAKISPGGSWTYYKDTVTGRFTFSLDTSKSTAYLQMNSLRAEDTAVYYCARQLWGYYALDIWGQGTLVTVSS VL: DIQLTQSPSSLSASVGDRVTITCSASISVSYMYWYQQKPGKAPKLLIYDMSNLASGVPSRFSGSGSGTDFTLTISSLQPEDFATYYCMQWSGYPYTFGQGTKVEIK | 0.00558 s⁻¹
anti-IL-6 Fab, heavy chain T28A (Fab, V domains shown, see m39) VH: EVQLVESGGGLVQPGGSLRLSCAASGFAFSPFAMSWVRQAPGKGLEWVAKISPGGSWTYYSDTVTGRFTFSLDTSKSTAYLQMNSLRAEDTAVYYCARQLWGYYALDIWGQGTLVTVSS VL: DIQLTQSPSSLSASVGDRVTITCSASISVSYMYWYQQKPGKAPKLLIYDMSNLASGVPSRFSGSGSGTDFTLTISSLQPEDFATYYCMQWSGYPYTFGQGTKVEIK | 0.00396 s⁻¹
anti-IL-6 Fab, heavy chain T28E (Fab, V domains shown, see m39) VH: EVQLVESGGGLVQPGGSLRLSCAASGFEFSPFAMSWVRQAPGKGLEWVAKISPGGSWTYYSDTVTGRFTFSLDTSKSTAYLQMNSLRAEDTAVYYCARQLWGYYALDIWGQGTLVTVSS VL: DIQLTQSPSSLSASVGDRVTITCSASISVSYMYWYQQKPGKAPKLLIYDMSNLASGVPSRFSGSGSGTDFTLTISSLQPEDFATYYCMQWSGYPYTFGQGTKVEIK | 0.00428 s⁻¹
anti-IL-6 Fab, heavy chain T65A (Fab, V domains shown, see m39) VH: EVQLVESGGGLVQPGGSLRLSCAASGFTFSPFAMSWVRQAPGKGLEWVAKISPGGSWTYYSDTVAGRFTFSLDTSKSTAYLQMNSLRAEDTAVYYCARQLWGYYALDIWGQGTLVTVSS VL: DIQLTQSPSSLSASVGDRVTITCSASISVSYMYWYQQKPGKAPKLLIYDMSNLASGVPSRFSGSGSGTDFTLTISSLQPEDFATYYCMQWSGYPYTFGQGTKVEIK | 0.00615 s⁻¹
anti-IL-6 Fab, heavy chain T65G (Fab, V domains shown, see m39) VH: EVQLVESGGGLVQPGGSLRLSCAASGFTFSPFAMSWVRQAPGKGLEWVAKISPGGSWTYYSDTVGGRFTFSLDTSKSTAYLQMNSLRAEDTAVYYCARQLWGYYALDIWGQGTLVTVSS VL: DIQLTQSPSSLSASVGDRVTITCSASISVSYMYWYQQKPGKAPKLLIYDMSNLASGVPSRFSGSGSGTDFTLTISSLQPEDFATYYCMQWSGYPYTFGQGTKVEIK | 0.0057 s⁻¹
anti-IL-6 Fab, heavy chain T28K (Fab, V domains shown, see m39) VH: EVQLVESGGGLVQPGGSLRLSCAASGFKFSPFAMSWVRQAPGKGLEWVAKISPGGSWTYYSDTVTGRFTFSLDTSKSTAYLQMNSLRAEDTAVYYCARQLWGYYALDIWGQGTLVTVSS VL: DIQLTQSPSSLSASVGDRVTITCSASISVSYMYWYQQKPGKAPKLLIYDMSNLASGVPSRFSGSGSGTDFTLTISSLQPEDFATYYCMQWSGYPYTFGQGTKVEIK | 0.00408 s⁻¹
anti-IL-6 Fab, heavy chain S56H (Fab, V domains shown, see m39) VH: EVQLVESGGGLVQPGGSLRLSCAASGFTFSPFAMSWVRQAPGKGLEWVAKISPGGHWTYYSDTVTGRFTFSLDTSKSTAYLQMNSLRAEDTAVYYCARQLWGYYALDIWGQGTLVTVSS VL: DIQLTQSPSSLSASVGDRVTITCSASISVSYMYWYQQKPGKAPKLLIYDMSNLASGVPSRFSGSGSGTDFTLTISSLQPEDFATYYCMQWSGYPYTFGQGTKVEIK | 0.0409 s⁻¹
anti-IL-6 Fab, heavy chain T63D (Fab, V domains shown, see m39) VH: EVQLVESGGGLVQPGGSLRLSCAASGFTFSPFAMSWVRQAPGKGLEWVAKISPGGSWTYYSDDVTGRFTFSLDTSKSTAYLQMNSLRAEDTAVYYCARQLWGYYALDIWGQGTLVTVSS VL: DIQLTQSPSSLSASVGDRVTITCSASISVSYMYWYQQKPGKAPKLLIYDMSNLASGVPSRFSGSGSGTDFTLTISSLQPEDFATYYCMQWSGYPYTFGQGTKVEIK | 0.00603 s⁻¹
